The numbers were not newly measured in KR20200047176A, “투라노스의 제조방법” (주식회사 삼양사, priority 2018, dated 2020), which cites them from elsewhere.

The conditions of this data set: 2 M sucrose substrate.

B1: NpAS: amylosucrase from Neisseria polysaccharea, known prior enzyme (protein, UniProt Q9ZEU2 1-636, looked up)
Amylosucrase: MLTPTQQVGLILQYLKTRILDIYTPEQRAGIEKSEDWRQFSRRMDTHFPKLMNELDSVYGNNEALLPMLEMLLAQAWQSYSQRNSSLKDIDIARENNPDWILSNKQVGGVCYVDLFAGDLKGLKDKIPYFQELGLTYLHLMPLFKCPEGKSDGGYAVSSYRDVNPALGTIGDLREVIAALHEAGISAVVDFIFNHTSNEHEWAQRCAAGDPLFDNFYYIFPDRRMPDQYDRTLREIFPDQHPGGFSQLEDGRWVWTTFNSFQWDLNYSNPWVFRAMAGEMLFLANLGVDILRMDAVAFIWKQMGTSCENLPQAHALIRAFNAVMRIAAPAVFFKSEAIVHPDQVVQYIGQDECQIGYNPLQMALLWNTLATREVNLLHQALTYRHNLPEHTAWVNYVRSHDDIGWTFADEDAAYLGISGYDHRQFLNRFFVNRFDGSFARGVPFQYNPSTGDCRVSGTAAALVGLAQDDPHAVDRIKLLYSIALSTGGLPLIYLGDEVGTLNDDDWSQDSNKSDDSRWAHRPRYNEALYAQRNDPSTAAGQIYQGLRHMIAVRQSNPRFDGGRLVTFNTNNKHIIGYIRNNALLAFGNFSEYPQTVTAHTLQAMPFKAHDLIGGKTVSLNQDLTLQPYQVMWLEIA
In the case of B1, the turanose conversion is given as 50.9%.
